Measured values from patent publication US20220033519A1 (NATIONAL RESEARCH COUNCIL OF CANADA, published 2022).

T1: soluble and secreted FUT8 (sFUT8) enzyme (aa 87-575; UniProtKB #Q9BYC5) with C-terminal polyhistidine tag (UniProt Q9BYC5 87-575)
T1 sequence: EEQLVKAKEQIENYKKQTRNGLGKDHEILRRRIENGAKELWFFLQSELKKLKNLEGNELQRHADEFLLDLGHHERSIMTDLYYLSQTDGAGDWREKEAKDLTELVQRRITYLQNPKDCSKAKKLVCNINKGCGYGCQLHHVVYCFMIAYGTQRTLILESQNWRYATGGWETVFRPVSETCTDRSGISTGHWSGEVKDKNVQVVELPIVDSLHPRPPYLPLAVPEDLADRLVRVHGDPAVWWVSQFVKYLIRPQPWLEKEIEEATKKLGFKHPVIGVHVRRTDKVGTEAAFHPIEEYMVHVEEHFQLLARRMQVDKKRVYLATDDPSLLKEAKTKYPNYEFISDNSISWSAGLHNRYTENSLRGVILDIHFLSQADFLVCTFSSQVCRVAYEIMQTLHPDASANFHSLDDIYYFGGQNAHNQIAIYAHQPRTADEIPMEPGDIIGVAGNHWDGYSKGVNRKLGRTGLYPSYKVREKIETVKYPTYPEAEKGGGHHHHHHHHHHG

B1: anti-FUT8 monoclonal antibody 1H9 (hybridoma) (antibody, V domains shown)
VH: EVQLQQSGPELVKPGASVKMSCKASGYIFTDYVMHWVKQSNGKSLEWIGYINPYNDYSNYNQKFKGKATLTVDKSSNTAYMQLNSLTSEDSAVYFCARSGDVWLAYWGQGTLVTISA
VL: DIVLTQSPASLAISLGQRATISCRASKSVSTSGYSYMHWYQQKPGQPPRLLIYLASNLESGVPARFSGSGSGTDFTLNIHPVEEEDGATYYCQHSRELPWTFGGGT
B2: anti-FUT8 monoclonal antibody 5C9 (hybridoma) (antibody, V domains shown)
VH: QVQLKESGPGLVAPSQSLSITCTVSGFSLTGYGVNWVRQPPGKGLEWLGTIWGDGSTDYNSALKSRLSISKDNSKTQVFLKMHSLQTDDTAIYYCARGGYDDYFGYAMDYWGQGTSVTVSS
VL: DIVMTQSQKFMSTVVGDRVSVTCKASQNVGTNVAWYQQKPGQSPKALIYSASYRYSGVPDRLTGSGSGTDFTLTFSYVQSEDLAEYFCQQYYTYPYTFGGGTKLEIK
B3: anti-FUT8 monoclonal antibody 1D2 (hybridoma) (antibody, V domains shown)
VH: QVQLKESGPGLVAPSQSLSITCTVSGFSLTGYGVNWVRQPPGKGLEWLGMIWGDGSTDYNSALKSRLSISKDNSKSQVFLKMNSLQTDDTASYYCARDFYDGYLYAMDYWGQGTSVTVSSAS
VL: DIVMTQSQKFMSTSLGDRVSVTCKASQNVGSYVAWYQQKPGQSPKALIYSASYRYSGVPDRFAGSGSGTDFTLTISNVQSEDLAEYFCQQYYTYPYTFGGGTWSTRLASWAFRSL

Target: T1, soluble and secreted FUT8 (sFUT8) …
Experiment: cell-based or functional assay

| Binder | FUT8 enzymatic activity (% inhibition) |
| --- | --- |
| B1 | 60% |
| B2 | 87% |
| B3 | 82% |
